Experimental data from paper PMC11018632, “The CB1 receptor interacts with cereblon and drives cereblon deficiency-associated memory shortfalls” (EMBO Molecular Medicine, 2024).

Experiments:
[1] = biological target: T1, 5-IAF-labelled 6xHis-tagged human CB1R carboxy-terminal domain (hCB1R-CTD, amino acids 400-472) (human, UniProt P21554 400-472, labelled with 5-(iodoacetamido)fluorescein (5-IAF)); assay: FP
T1 chain: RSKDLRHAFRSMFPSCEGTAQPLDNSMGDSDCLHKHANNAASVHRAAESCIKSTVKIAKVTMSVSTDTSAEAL

[2] = biological target: T2, 6xHis-tagged human cereblon (hCRBN), recombinant (human, UniProt Q96SW2 1-442); assay: fluorescence polarisation; saturation binding; constant 100 nM 5-IAF-hCB1R-CTD and increasing amounts of hCRBN (~0-100 µM); fitted to a one-site equation for Kd; details: both partners purified
T2 construct: cereblon/CRBN, human; human CRBN cDNA inserted in the pBH4 vector; the introduction speaks of the 442 amino-acid protein; No tag cleavage is described; also called His6-tagged CRBN; unlabelled human CRBN

B1: 6xHis-tagged human cereblon (hCRBN), recombinant (natural protein)
chain: MAGEGDQQDAAHNMGNHLPLLPAESEEEDEMEVEDQDSKEAKKPNIINFDTSLPTSHTYLGADMEEFHGRTLHDDDSCQVIPVLPQVMMILIPGQTLPLQLFHPQEVSMVRNLIQKDRTFAVLAYSNVQEREAQFGTTAEIYAYREEQDFGIEIVKVKAIGRQRFKVLELRTQSDGIQQAKVQILPECVLPSTMSAVQLESLNKCQIFPSKPVSREDQCSYKWWQKYQKRKFHCANLTSWPRWLYSLYDAETLMDRIKKQLREWDENLKDDSLPSNPIDFSYRVAACLPIDDVLRIQLLKIGSAIQRLRCELDIMNKCTSLCCKQCQETEITTKNEIFSLSLCGPMAAYVNPHGYVHETLTVYKACNLNLIGRPSTEHSWFPGYAWTVAQCKICASHIGWKFTATKKDMSPQKFWGLTRSALLPTIPDTEDEISPDKVILCL
Kd [1]: 2810 nM

B2: 5-IAF-labelled 6xHis-tagged human CB1R carboxy-terminal domain (hCB1R-CTD, amino acids 400-472) (domain or fragment, UniProt P21554 400-472, looked up)
chain: RSKDLRHAFRSMFPSCEGTAQPLDNSMGDSDCLHKHANNAASVHRAAESCIKSTVKIAKVTMSVSTDTSAEAL
modifications: labelled with 5-(iodoacetamido)fluorescein (5-IAF)
notes: type-1 cannabinoid receptor (CB1R), human, carboxy-terminal domain, amino acids 400-472; The construct was made in earlier work (Costas-Insua et al, 2021); The results section gives aa 408-472 for the CTD of the earlier proteomic screen; also called 5-IAF-hCB1R-CTD; His6-tagged CB1R-CTD
binding result [2]: binds
